Data as given in the domain aggregation screens of Martell et al. (2025).

Test: soluble fraction after stress (log2 fold change); higher = more stays soluble; pooled small domains, quantitative proteomics
Conditions: stress: 50 degC
Summary of the method: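 Each library was heated to 50°C as a stress step. The libraries, made up of small protein domains, were pooled and analysed at high throughput by quantitative proteomics. The reported value is the base-two logarithm of the fold change in each protein's soluble amount after stress, taken as a measure of aggregation propensity. The higher the value, the more protein stays in solution.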

Row | Sequence | soluble fraction (log2)
1 | HMSEVPVLVAKTDIKELELIDDRKVTLINVPQKFKMPGSFNSPEEVYNTIAAVPIKEGEQITKPRVTWP | 0.134
2 | HMENMSFGTKLYTWLYGKLVGSDEIGNKYYTNINDPSDLNAKRWVIFNGEIEASKIPPHWHAWLHKSIDK | -0.646
3 | HMTNVIPKAMAPFNGSTIIADGIKNIKDHIDNLYITVGYKGATLSEHVINKGVSAVFNTTGKGNAWWVYN | 0.0606
4 | HMKDLDSLSQEAKSVYAVFSDKPIHIDDIKRKTGLDFSKLFKAVTELELAELISSGEGKMYSL | -0.0108
5 | HMLESVMHSRIAEIISREGTAPAHMSMQEKIRVVHKLDADGILMMKGAVAEIADQLSVSVPTIYRYLNKPQ | -1.8
6 | HMAVQAESDIIKRAALLRNLGNTSMQLKNIDQAIDFYKQGIKLHPEDAELKYNLSQALRQKSQSNN | 0.0399
7 | HMKPDWLSDGRLIPDEVMSHLRKIAVHAVEEMGYSPEDVIKILGLSRNTIYDWLKRFREHGYEGLDTKK | -0.258
8 | HMKKVIEFKDVSFAFEKKPILQDFNLLVQNKDRIGIVGDNGVGKSTLLNLIAERLQPQSGQVII | 0.00568
9 | HMEDLAERLDNLSTMYAKMDPVRAAQVLLESKNKSENIEVLKRLKPKSLGLILENMPPREAYDYVSELQ | 0.0712
10 | HMRSIVETLTDRELEIFQLIGNGFSTGEIARRLNLSPHTIETHRKNIKDKLGLSSGSELNKQAIQWVLSS | 0.153
11 | HMSEITQTLSMIGKEVTLEIPDEKDKTKTTEVKGIVTEASFKDGTGKVKVNGEYYSIAYITSIRDT | 0.335
12 | HMQDREKNIAEGRDIIEHEFMRLGISLSRYDLDGLASKLNVKAGDDVLAGVGAGDIRVSQIISQLG | -0.00799
13 | HMLTTIRKATVNDKTRIMEIYAYARQFMAEHGNPNQWKNNNPSEETIDNDIAKQEMYVIETDGEVHAVFY | -1.44
14 | HMAYMETIERVEALAPGTKFNLKALFGTDWTQSRGTKLTLGKTFYEMVESGYVKTAKVLGKDSSNIMQYER | -0.107
15 | HMSIQDLMNSKDLSGFKVEMLSNEDIVKYKSMLQSSGFSESQAEQLALQRGLPTSELIKLRTRISDVAVT | 0.0344
16 | HMEQTMNDMLKLVDLLPQNQQDIVRMRFYENMSFKEIAESNQISINTALGRMRYAILNLRKYAAERNL | -2.35
17 | HMNPIEAQIEELKNKDQKTAYQALKHLLAISETRAEVSYYFDRFVALLQDPQSYVRTRGLLLIGA | 0.271
18 | HMLPAGSDAILRYLSSGAVKGIGVATAARIVEKFGDETLRILEEEPGRLAEIKGITAAKAKAIGEAFAGQ | -0.168
19 | HMQDPRITRTRGLILQAFDALLVEKGFHALSVQAIAGRAGINRATFYAHFADKYALLDTSIQE | 0.268
20 | HMLKHEEIQEYIKEQINSGTWKPKAKLPSLRDMSELFSTSIGTVLTAYSALEKKHIIYSIPRSGYYVLG | -1.11
21 | HMIEEIAVPEILGMQEEEAKAKIEGLGLVFNVTDRVKSNEYEKGEVMYQSVGPDDTTVKSGYPINVTISEG | -0.0543
22 | HMLTGDVDRYKDFFIALEKTSPVPIGFEKIIGGAHGYYHLEDKRIAIDEGMSELQTLKTAIHEIAHAKLHD | -0.14
23 | HMDSGLEQAKTAALENAELETSQVTFIKAELDYDDGKKVYEIEFVTSAMKYEYQVKADDFSILEMSKETIE | -0.39
24 | HMPSDTNLIGKTGIAYTTLRPGGTALIDDRKVDVVADSEYIEKDKKIKVIRVEGIKVVVTAVK | 0.091
25 | HMFIPMTDAQRHLFANKLAKLPELSEYSRGTESYEDFAIRIADMLLEPPKFRMFYPLLEQLGF | -1.88

Row | Sequence | soluble fraction (log2)
26 | HMDLKSLEFAIVENVQRHDLNPLEEAQGYKRLIDEFSYDQDKVSKFIGKSRSYITNSLRLLNLPLEVLEF | -0.049
27 | HMPEVYPFEVAEDDAGKRLDVFLSEEIEEFTRSFIQKLIAGGLASVNRAPARASYRVKPRDLVELQVPE | -0.448
28 | HMQNPYDTLGVSRDSTDAEIKKAYRKLAMEHHPDKGGDSQRFAEINNAYDNIKDMSSRQNFENDPSNFQ | 0.288
29 | HMQNELAEARSQLAERKNIDQAKLILMKKRNISEPEAYKLLRSHAMQTNRRVAEVAESIITAESLLG | 0.0394
30 | HMSSTPEPPQAVLDLVNLREQARAGKDWTQSDAFRQQIAALGWTVKDTKDGPVVSLSPTTTE | 0.0968
31 | HMRYLMPDLVNRRYEPVRSLLEARGIRFGNVIFEPYEGLPPGIVLRQDPPAGHPLPRRRTVSLVVSGPGGR | -1.88
32 | HMNQDQDLSRIKGIGPEMVDRLHAQGVETLEQIAAMQMEQLKKLDQQISGNGKAVREQWAEQAKQLLTT | 0.0638
33 | HMWNPVLVVRGDFPKDLATTLLKMIFAQKEALNPHILFQNLLRTDNITFRESYPYHSASKTMFRF | -0.148
34 | HMTELVIPDYFSKALAKNKKAKQVFEAFAYSHRKEYLQWITEAKTEETRNKRMATAIEWIAEGKGRNWKYA | -1.69
35 | HMGGEEINMINLVGLSQSEAENQLAKLKLKIGQVTAEYSDKPSGTVLKQSISANNKVKKGADIDIVVSKG | 0.126
36 | HMLKPQQTQRIYAMAARLGVLESGNKNDMLHTIVYRLTQKESIRSLNENEYKTVVSELAERLKL | -0.97
37 | HMNSNKFANAAAVAVAEKPADSYNPLFIYGPSGVGKTHLLYAIANEIHKHHPDYNIVYIKGDQFTNELIN | -0.0439
38 | HMQEAATSLNAKILAKLRENNGTLAVSDKSDPALISSLFGVSKGNFKKAIGALYKNGQIVIHADRIEL | -0.436
39 | HMGQPGNWTSYVFKNSDTEPAKPTSSGPIPSGWNDAPTGVGIWWMSKATIDASTGKAGSWSTPIRVTGED | 0.0592
40 | HMKITININIETLSHHIKQSGVPLGRLQESVPDYNEIVTGNKSPTYQQLEKISKLIRVPLGLLVIESPL | 0.268
41 | HMANDNFPLKLGSKGPRVLQLKTMLIQSLSNDALPKGRSSDAFDSELEALLSRNNLPTVIDETNFRVLTK | 0.386
42 | HMDQPLIEPLSERELEVLSLIAAGYSNAEIAERLVIAVGTVKRHINNLYGKLGAGSRTQALAIAREIGLM | 0.0589
43 | HMRPRGTRLPTGWTPSSDALDWTKAEKPGLDPLQTLEKFRDYWTAQPGQKGVKTDWDATWRNWVRREIP | 0.172
44 | HMDQVLHQLVEVLRRSEIRISPAETLDAFKVLRNVGIDNKSLLREALALTLAKSIHEKIIFYETFDEFFT | -1.16
45 | HMEANAYFDAYPDVAAEWARLSGSDEGKATLSAIGVTTPQQFAQYHYTTFGSKENRNAPVGYTP | 0.0756
46 | HMTSLTSDEEQIINVLRAEESVYINALATKSKIPLQKLLGLLIQLEFKGLIHSLPGSHYKIV | -0.138
47 | HMLRNDEAVMLGRRLLNKHLQAFSVQIKDISHQRIHDLLDELELESLDHLLDDIGLGNRSVFLVAQKLLQ | -1.39
48 | HMADEEEIMVPQVVGKTYDEAKSELENAGFKVEKNEKTSDKASGTVISQSINGGAKKGTSVTLTVSKGN | 0.149
49 | HMGSDQEAAMARQDRLSTLVDYVVERGSVHVDDIVADLGVSPATVRRDLDALAAQQLIIRTRGGATANHT | 0.0263
50 | HMSAAYVYVTGTRVNQRDGPSTFDRVMGVLVEGTRVQLLRDQGQWAQIRSDLGTGWLSSGFLSRNG | -1.87

Row | Sequence | soluble fraction (log2)
51 | HMDDISLEEIKYISSKLETKVNEIEELLVRYYDGETNEAEEKELKEFFAQADVPAHLLAEKRLFMQLASQ | -0.0772
52 | HMKITLAESVYERIRRDIITNQLKPGEKINIRELSTRYEASETPIRLALNRLASENIIEHFPRQGMRVK | -0.371
53 | HMGGELLSLRRIGTLTGISYPTLLRYVARYGEQIPQTGTGRSRRFPPAAVPVFQELRATRGRAPRATA | -0.063
54 | HMFKNWMPFDEARIFVRKLKFNSHDEFRKYLKANEINIPSKPWSTYKGKGWVSIGDFLGTHR | -2.82
55 | HMESGNLIFTNAPIADVVNAIETRYGKKLQASNQTSDLQFTGIFKNTDEFSTVVKTIEIALGLQFEV | -1.19
56 | HMLKQLGRQEGRQEGAVDALRTVLALQIEQRFGPLDPTVQALIVAADIDALQRALSRVAVVSDLGAVFPP | -0.238
57 | HMKRVPFAFAGDMLRWAAWLYHVEKRTQNEIAEELEVSRQTVANYLSEAMSQGLVQVQLRSDIIE | -1.52
58 | HMILKNVTSDLANKRLDKVASILFQTYSRTQIKKWILEGRVLVNGEISNPKDHVHENDEIEINPI | -1.04
59 | HMKPALFSADELNRLYRYGLSLTGERDRAYDLLQTALEKYLRQSQAPANAMRYVRKIMHNQFIDDYR | -1.13
60 | HMKGKDLQDAVVTVVGGAENWNAIRAWAQASASDSEKREINAAFQSGKLMATMMAERLALAYQQSG | -0.0897
61 | HMKDITPASEDQLKAITDLMLKVNGEWSDAFFTFISKKFNHQISSPEQLTTFEANTIIDMLRKKAEG | 0.192
62 | HMQQLAEQIPTDRPYISIAEAVVLFGISRDTIYRQIRKGNIPAVNLGERLTRISRIHIEAMFPKV | -0.563
63 | HMIDDPTAVILRLVSEKQVIRRDDVVKALSVTPQKAYRLLKTMTTGGLLTRSGARRTTVYGLPDARER | -0.0945
64 | HMSVTDDQLRVFTNKSGTKIKAKIVEVSDDKVKLIRDDNKKFIVPINSLSEEDQDYLRDWVSNEAVEP | 0.0333
65 | HMVPEETKQFINQLNHGSLSIRMNAANNLEKLGLLAIPEIEAALPKAHGEAAFRLPRLLHALVLRETEYF | -0.00885
66 | HMRTANREKRIEASVKMMKAGYPVGYIIARVFMYEGWEEDYRQLLIYLSEKIPKDVSNPITFEVIS | -0.296
67 | HMLKAKKIPVSDLEKFKGIVAEDVVSKAKALILPRGSNLSWLSNVAKKNLIAKLKAEGIEYISVYSS | 0.134
68 | HMGMFNENLRFLRQKRQMSQQAFASILGIPRTTYSEYEKGNTEPNLKLLIRLSELLDVSLDNLISDDLTHN | -2.44
69 | HMDVNHVIIDHKGNSIQAIIDSIDLDNVYYQSKIKKESEVIDIDKVYFIFNDFDRVYHYDWSYYENL | -0.138
70 | HMQITTVSPKNYAEAELIGQRFREGNPVVMDLSKLDSDLGQRLVDFASGLVFALNGTVERIAKKVFLLSP | -0.943
71 | HMALSVRNRMSDLLRMLGDGEFHRFENLFSLEEGRHGIVVTFLAMLELAKEQLVEISQGESLAPIYLKSLA | -0.716
72 | HMSMNSWFVEKERDNTRIDKFLNEQMADISRSYIQKLIKDDLVTVDLRPVKANYKVKEGDRVEVTLPEPV | 0.0182
73 | HMRIDSFEDARRRFEYDYLTRLLKLTQGSVTQAAKLAKRNRTEFYKLLQRHGIEAAHFKPTS | -0.581
74 | HMVTDTGEIEAIIDRVISENPDSVSDFKNGKERALKFLMGQAMKESKGKANPQIVNELLLKKL | 0.264
75 | HMSDNLSASERKALSHMEGMESVRSSEVADLLGMSQRGAQKLLNRLVDKGLASSFGANRNRRYSVE | 0.306
